From patent US20230051715A1 (MABWELL THERAPEUTICS, published 2023)

T1: full-length human C1s (produced in house) (human, UniProt P09871 16-688)
T1 construct: Called full-length; Partly auto-cleaved at R422-I423 on blots; also called HuC1s; Hu C1s
T1 sequence: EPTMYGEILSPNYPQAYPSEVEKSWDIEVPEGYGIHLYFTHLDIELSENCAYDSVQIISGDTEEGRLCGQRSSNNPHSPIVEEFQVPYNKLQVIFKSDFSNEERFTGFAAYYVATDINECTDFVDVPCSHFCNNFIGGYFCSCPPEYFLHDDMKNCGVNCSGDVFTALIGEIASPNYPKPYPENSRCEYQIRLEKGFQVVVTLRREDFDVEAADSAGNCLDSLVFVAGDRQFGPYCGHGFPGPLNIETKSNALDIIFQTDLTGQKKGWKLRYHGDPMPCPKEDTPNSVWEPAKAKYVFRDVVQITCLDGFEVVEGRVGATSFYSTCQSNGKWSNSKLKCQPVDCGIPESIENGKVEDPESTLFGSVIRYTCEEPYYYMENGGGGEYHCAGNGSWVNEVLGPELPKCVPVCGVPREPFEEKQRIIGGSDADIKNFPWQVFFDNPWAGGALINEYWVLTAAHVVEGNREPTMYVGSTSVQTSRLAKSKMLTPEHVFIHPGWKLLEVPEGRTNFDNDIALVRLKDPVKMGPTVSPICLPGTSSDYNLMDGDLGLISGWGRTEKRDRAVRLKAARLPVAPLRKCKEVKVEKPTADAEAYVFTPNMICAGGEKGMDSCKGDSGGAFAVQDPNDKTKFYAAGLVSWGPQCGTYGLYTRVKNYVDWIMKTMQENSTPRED

T2: cynomolgus monkey C1s (produced in house) (cynomolgus monkey, UniProt P09871 16-685 (human entry), limits assumed)
T2 construct: also called CyC1s
T2 chain: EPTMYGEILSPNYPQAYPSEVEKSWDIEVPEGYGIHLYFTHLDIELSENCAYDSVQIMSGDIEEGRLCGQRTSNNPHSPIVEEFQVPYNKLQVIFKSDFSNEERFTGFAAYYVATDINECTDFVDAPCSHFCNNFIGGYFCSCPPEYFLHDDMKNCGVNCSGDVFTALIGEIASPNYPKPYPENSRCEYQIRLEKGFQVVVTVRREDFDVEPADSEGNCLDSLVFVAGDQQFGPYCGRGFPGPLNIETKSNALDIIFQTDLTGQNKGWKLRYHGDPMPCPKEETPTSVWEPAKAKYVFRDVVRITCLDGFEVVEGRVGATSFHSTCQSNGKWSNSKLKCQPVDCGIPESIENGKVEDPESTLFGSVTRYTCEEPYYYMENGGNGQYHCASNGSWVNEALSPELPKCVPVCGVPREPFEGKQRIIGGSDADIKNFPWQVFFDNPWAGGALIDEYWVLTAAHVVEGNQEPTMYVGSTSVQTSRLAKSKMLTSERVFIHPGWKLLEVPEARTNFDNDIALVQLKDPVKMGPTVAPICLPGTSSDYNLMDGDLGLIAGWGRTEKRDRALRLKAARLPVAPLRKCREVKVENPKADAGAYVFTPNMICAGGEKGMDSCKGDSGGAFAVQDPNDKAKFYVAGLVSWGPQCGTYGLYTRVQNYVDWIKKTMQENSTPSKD


Experiments:
[1] = molecular target: T1, full-length human C1s (produced in …); test: BLI (Octet RED96e), antibody on AHC biosensor; C1s Species: Human; R^2 0.9983
From the text: (§1) At last, analyte was dissociated in 1×KB for 360 sec. Data analysis was done using OCTET® Data Analysis HT Software (Sartorius AG).

[2] = molecular target: T2, cynomolgus monkey C1s (produced in …); test: BLI (Octet RED96e), antibody on AHC biosensor; C1s Species: Cyno Monkey; R^2 0.9996
From the text: as §1

Binder | Kd [1] [nM] | koff [1] [s⁻¹] | kon [1] [M⁻¹ s⁻¹] | Kd [2] [nM] | koff [2] [s⁻¹] | kon [2] [M⁻¹ s⁻¹]
Anti-C1s antibody 2-7 (antibody, human IgG1, kappa, V domains shown, the HC/LC entries may hold it too; also called clone 2-7) VH: EVKLEESGGGLVPPGGSMKLSCVASGFTFSNYFMNWVRQSPEKGLEWVAEIRLKFTNYATHYAESVEGRFTISRDDSKSSVYLQMNNLRAEDTGIYYCTRDYGSRNGYFDYWGQGTTLTVSS VL: DIVMTQAAPSVPVTPGESVSISCRSSKSLLHSNGNTFLYWFLQRPGQSPQLLIYRMSNLASGVPDRFSGSGSGTAFTLRVSRVEAEDVGIYYCMQHLEYPYTFGGGTKLEIKT | 0.012 | 3.9e-05 | 3.2e+06 |  |  | 
Anti-C1s antibody 2-8 (antibody, V domains shown, the HC/LC entries may hold it too; also called clone 2-8) VH: EVQLQQSGAELVRPGALVKLSCKASGFNIKEYYMHWVKQRPEQGLEWIGWIDPENGDTIYDPKFQGKASITADTSSNTAYLQLSSLTSEDTAVYYCARSRLFFAYWGQGTLVTVSA VL: DIVMTQSHKFMSTSVGDRVSFTCKASQDVRTAVDWYQQKPGQSPKLLIYSASYRYTGVPDRFTGTGSGTDFTFTISSVQAEDLAVYFCQQQYTTPYTFGGGTKLEIKT |  |  |  | 1.1 | 0.00028 | 260000
